The text below walks through data of the supplement of paper PMC7877785.

± gives the uncertainty stated by the source.

A short description of this data set: self-splicing fitness, log relative to wild type (ln ratio); higher = more splicing; Tetrahymena group I intron in knt gene, E. coli kanamycin selection, DiMSum; sequences stand for … in CUCUCU…GGAGGGAAAAGUUAUCAGGCAUGCACCUGGUAGCUAGUCUUUAAACCAAUAGAUUGCAUCGGUUUAAAAGGCAAGACCGUCAAAUUGCGGGAAAGGGGUCAACAGCCGUUCAGUACCAAGUCUCAGGGGAAACUUUGAGAUGGCCUUGCAAAGGGUAUGGUAAUAAGCUGACGGACAUGGUCCUAACCACGCAGCCAAGUCCUAAGUCAACAGAUCUUCUGUUGAUAUGGAUGCAGUUCACAGACUAAAUGUCGGUCGGGGAAGAUGUAUUCUUCUCAUAAGAUAUAGUCGGACCUCUCCUUAAUGGGAGCUAGCGGAUGAAGUGAUGCAACACUGGAGCCGCUGGGAACUAAUUUGUAUGCGAAAGUAUAUUGAUUAGUUUUGGAGUACUCGUGGUCG
Put shortly:
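Six replicate transformations of E. coli BL21(DE3) with a pET-22b(+) library were grown overnight at 37°C or 30°C. The library randomised all eight P1ex-region intron nucleotides, the intron lying in the knt kanamycin-resistance gene, and plates were LB agar with or without 25 μg/mL kanamycin plus 100 μg/mL carbenicillin, 50 μM IPTG and 0.2% rhamnose. Pooled colonies were amplicon-sequenced on an Illumina HiSeq 2500, and fitness is the DiMSum error-weighted combination of wild-type-normalised replicate fold changes, kanamycin versus none.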

With UUUGAGCAAUAUUACGGCUA, the “self-splicing fitness (ln)” value is, setting by setting: (30 °C) -0.914 ± 0.23; (37 °C) -1.2 ± 0.21. For UCGAAGCAAUAUUACGAGCA the same measures were -1.77 ± 0.14 and 0.162 ± 0.14.

Regarding AAGAAGCAAUAUUACGCGCG, the “self-splicing fitness (ln)” value reads like this: (30 °C) -0.562 ± 0.12; (37 °C) -0.0457 ± 0.15. The like results for GAGCAGCAAUAUUACGAAAU were, in that order, -2.45 ± 0.21 and -1.84 ± 0.21. As to CCCGAGCAAUAUUACGUGUU, the “self-splicing fitness (ln)” value was -3.93 ± 0.15 (30 °C) and -3 ± 0.17 (37 °C).

Consider AAGAAGCAAUAUUACGGAUG, for which the “self-splicing fitness (ln)” value (30 °C) was -1.8 ± 0.076 and the “self-splicing fitness (ln)” value (37 °C) is -2.03 ± 0.12. The like results for UCUGAGCAAUAUUACGAUCU were, in that order, -3.4 ± 0.35 and -2.52 ± 0.21. For AGUGAGCAAUAUUACGCCGA the same measures were -1.82 ± 0.31 and -2.36 ± 0.4. Turning to AAACAGCAAUAUUACGCUGA, the “self-splicing fitness (ln)” value (30 °C) was -3.16 ± 0.14 and the “self-splicing fitness (ln)” value (37 °C) was -1.52 ± 0.11. In the case of UCCGAGCAAUAUUACGGGCA, the “self-splicing fitness (ln)” value (30 °C) is -1.79 ± 0.12 and the “self-splicing fitness (ln)” value (37 °C) was -0.787 ± 0.1. The like results for GUUAAGCAAUAUUACGCAUG were, in that order, -1.11 ± 0.083 and -0.624 ± 0.11.

Take CGGCAGCAAUAUUACGCAGG: the “self-splicing fitness (ln)” value (30 °C) is -2.02 ± 0.093 and the “self-splicing fitness (ln)” value (37 °C) is -1.33 ± 0.12. For GUUGAGCAAUAUUACGUCGG the same measures were -3.61 ± 0.39 and -1.61 ± 0.27.

For the sequence GUGUAGCAAUAUUACGUGGC, under “30 °C”, the “self-splicing fitness (ln)” value is -1.72 ± 0.18.

For the sequence AUAAAGCAAUAUUACGUAGC, the “self-splicing fitness (ln)” value is, setting by setting: (30 °C) -3.74 ± 0.27; (37 °C) -1.26 ± 0.2. For ACCCAGCAAUAUUACGCACC the same measures were -1.17 ± 0.1 and -0.52 ± 0.16.

On to UAGGAGCAAUAUUACGAACA, for which, for the setting “30 °C”, the “self-splicing fitness (ln)” value is -2.08 ± 0.29. Consider UACUAGCAAUAUUACGUCAG, for which the “self-splicing fitness (ln)” value (30 °C) was -1.72 ± 0.2 and the “self-splicing fitness (ln)” value (37 °C) was -1.43 ± 0.21. The like results for UACAAGCAAUAUUACGGUUG were, in that order, -2.1 ± 0.11 and -1.91 ± 0.15.

In the case of CGCGAGCAAUAUUACGUUAC, the “self-splicing fitness (ln)” value is -4.07 ± 0.28 (30 °C) and -1.78 ± 0.33 (37 °C). The like results for CGGCAGCAAUAUUACGGAAU were, in that order, -5.35 ± 0.41 and -1.42 ± 0.13. The like results for CAGCAGCAAUAUUACGACUG were, in that order, -3.64 ± 0.24 and -2.76 ± 0.33.

AACGAGCAAUAUUACGAAUA: for the setting “37 °C”, the “self-splicing fitness (ln)” value is -1.63 ± 0.34. GGGUAGCAAUAUUACGGUAG: under “37 °C”, the “self-splicing fitness (ln)” value is -1.91 ± 0.23. With AUUAAGCAAUAUUACGUUAA, the “self-splicing fitness (ln)” value reads like this: (30 °C) -2.52 ± 0.15; (37 °C) -1.35 ± 0.12. For ACUAAGCAAUAUUACGCCCG the same measures were -0.735 ± 0.14 and 0.678 ± 0.19. AAUGAGCAAUAUUACGGUGU: the “self-splicing fitness (ln)” value was -4.53 ± 0.29 (30 °C) and -2.55 ± 0.19 (37 °C). Turning to UUAUAGCAAUAUUACGUGUC, the “self-splicing fitness (ln)” value (30 °C) is -4.44 ± 0.36 and the “self-splicing fitness (ln)” value (37 °C) was -2.71 ± 0.26.

CUGCAGCAAUAUUACGUAGU: the “self-splicing fitness (ln)” value reads like this: (30 °C) -4.54 ± 0.45; (37 °C) -2.5 ± 0.28. The like results for CCAUAGCAAUAUUACGUCGU were, in that order, -2.4 ± 0.15 and -2.82 ± 0.23. For ACACAGCAAUAUUACGGUUA the same measures were -1.16 ± 0.059 and -0.485 ± 0.061. Consider GUAAAGCAAUAUUACGGCCG, for which the “self-splicing fitness (ln)” value is -0.257 ± 0.087 (30 °C) and 0.625 ± 0.12 (37 °C). CCAGAGCAAUAUUACGUGUU: the “self-splicing fitness (ln)” value is, setting by setting: (30 °C) -3.64 ± 0.16; (37 °C) -2.88 ± 0.17. With UUCCAGCAAUAUUACGCUCG, the “self-splicing fitness (ln)” value (37 °C) was -0.977 ± 0.23. With AAAUAGCAAUAUUACGGGAC, the “self-splicing fitness (ln)” value is, setting by setting: (30 °C) -3.19 ± 0.29; (37 °C) -1.57 ± 0.24. The like results for AGGCAGCAAUAUUACGGACA were, in that order, -0.916 ± 0.12 and -0.346 ± 0.13. The like results for AUGCAGCAAUAUUACGUUCU were, in that order, -0.207 ± 0.058 and 0.262 ± 0.079. For UGAGAGCAAUAUUACGCACU the same measures were -3.11 ± 0.32 and -2.02 ± 0.21. For the sequence GCAUAGCAAUAUUACGGACU, the “self-splicing fitness (ln)” value runs as follows: (30 °C) 0.021 ± 0.15; (37 °C) -0.121 ± 0.15.

With AGUAAGCAAUAUUACGCGAG, the “self-splicing fitness (ln)” value reads like this: (30 °C) -3.33 ± 0.21; (37 °C) -1.75 ± 0.15.

CUCUAGCAAUAUUACGAGAA: the “self-splicing fitness (ln)” value (30 °C) is -3.05 ± 0.41 and the “self-splicing fitness (ln)” value (37 °C) was -2.02 ± 0.21.

In the case of UGUCAGCAAUAUUACGCGCG, the “self-splicing fitness (ln)” value is -0.708 ± 0.14 (30 °C) and 0.0603 ± 0.13 (37 °C). Regarding UUUCAGCAAUAUUACGUAUA, the “self-splicing fitness (ln)” value (30 °C) is -0.408 ± 0.21 and the “self-splicing fitness (ln)” value (37 °C) is -0.0411 ± 0.25. Take AUCAAGCAAUAUUACGGUGG: the “self-splicing fitness (ln)” value is -3.54 ± 0.19 (30 °C) and -2.63 ± 0.2 (37 °C).

On to UAUGAGCAAUAUUACGCUCA, for which the “self-splicing fitness (ln)” value was -2.45 ± 0.31 (30 °C) and -2.73 ± 0.27 (37 °C).

Turning to UAUCAGCAAUAUUACGAACG, the “self-splicing fitness (ln)” value is 0.353 ± 0.085 (30 °C) and 0.157 ± 0.094 (37 °C).

As to GCCUAGCAAUAUUACGGGCG, the “self-splicing fitness (ln)” value was -2.03 ± 0.1 (30 °C) and -1.02 ± 0.097 (37 °C). For CGAAAGCAAUAUUACGGCAG the same measures were -0.162 ± 0.081 and 0.194 ± 0.1. The like results for AUUUAGCAAUAUUACGCUCA were, in that order, -1.14 ± 0.18 and 0.0165 ± 0.19. For GUGGAGCAAUAUUACGUUCU the same measures were -4.21 ± 0.26 and -2.38 ± 0.18. With AGGAAGCAAUAUUACGAAUU, the “self-splicing fitness (ln)” value is -2.58 ± 0.13 (30 °C) and -1.45 ± 0.15 (37 °C).

For AAGUAGCAAUAUUACGUACA, the “self-splicing fitness (ln)” value (30 °C) is -0.476 ± 0.11 and the “self-splicing fitness (ln)” value (37 °C) was -0.759 ± 0.14. Regarding GGAGAGCAAUAUUACGGAUU, the “self-splicing fitness (ln)” value (37 °C) is -1.62 ± 0.22. In the case of AGGAAGCAAUAUUACGGAGG, the “self-splicing fitness (ln)” value (30 °C) is -2.71 ± 0.34 and the “self-splicing fitness (ln)” value (37 °C) was -2.28 ± 0.35. Regarding AAAAAGCAAUAUUACGGCGA, the “self-splicing fitness (ln)” value runs as follows: (30 °C) -0.0921 ± 0.08; (37 °C) 0.25 ± 0.12. The like results for CUUAAGCAAUAUUACGUUGU were, in that order, -3.89 ± 0.2 and -1.64 ± 0.15. The like results for CGACAGCAAUAUUACGCGAA were, in that order, -2.75 ± 0.17 and -1.42 ± 0.14. For GAUGAGCAAUAUUACGCUCC, the “self-splicing fitness (ln)” value (30 °C) is -3 ± 0.3. Consider UUAUAGCAAUAUUACGACGU, for which the “self-splicing fitness (ln)” value was -3.45 ± 0.25 (30 °C) and -1.14 ± 0.16 (37 °C). Consider ACGCAGCAAUAUUACGUCGG, for which the “self-splicing fitness (ln)” value (30 °C) was -1.23 ± 0.067 and the “self-splicing fitness (ln)” value (37 °C) was -1.14 ± 0.1. For CUCUAGCAAUAUUACGACCG the same measures were -0.158 ± 0.23 and -0.785 ± 0.24. On to UCAGAGCAAUAUUACGAUAU, for which the “self-splicing fitness (ln)” value (37 °C) was -2.32 ± 0.33. Regarding AAUCAGCAAUAUUACGUCCC, the “self-splicing fitness (ln)” value (30 °C) is -0.818 ± 0.1 and the “self-splicing fitness (ln)” value (37 °C) was 0.164 ± 0.14.

Turning to CGAAAGCAAUAUUACGAAAG, the “self-splicing fitness (ln)” value was -0.96 ± 0.073 (30 °C) and -0.475 ± 0.11 (37 °C). The like results for CACAAGCAAUAUUACGGGGA were, in that order, -2.64 ± 0.11 and -1.69 ± 0.1. For ACUGAGCAAUAUUACGCAAU the same measures were -2.79 ± 0.28 and -2.03 ± 0.27. For GCCUAGCAAUAUUACGAUAU the same measures were -2.23 ± 0.11 and -0.907 ± 0.097. With GUGCAGCAAUAUUACGCUGU, the “self-splicing fitness (ln)” value was -3.35 ± 0.24 (30 °C) and -2.63 ± 0.26 (37 °C). For CUCCAGCAAUAUUACGUUCC the same measures were -4.23 ± 0.46 and -1.99 ± 0.35. As for GCGAAGCAAUAUUACGGGAU, the “self-splicing fitness (ln)” value was -3.58 ± 0.3 (30 °C) and -2.07 ± 0.26 (37 °C). GGCUAGCAAUAUUACGACGG: the “self-splicing fitness (ln)” value is, setting by setting: (30 °C) -3.75 ± 0.37; (37 °C) -2.18 ± 0.46. For GCCUAGCAAUAUUACGCCAA the same measures were -2.38 ± 0.32 and -3.18 ± 0.29. For the sequence UCCAAGCAAUAUUACGUUAG, the “self-splicing fitness (ln)” value was -1.97 ± 0.13 (30 °C) and -2.91 ± 0.28 (37 °C).

For ACGAAGCAAUAUUACGGUGC, the “self-splicing fitness (ln)” value is -4.82 ± 0.27 (30 °C) and -3.17 ± 0.2 (37 °C).

AUUAAGCAAUAUUACGCGGU: the “self-splicing fitness (ln)” value runs as follows: (30 °C) -3.93 ± 0.47; (37 °C) -3.09 ± 0.35.

Regarding UCGCAGCAAUAUUACGCCAG, the “self-splicing fitness (ln)” value is -2.63 ± 0.084 (30 °C) and -1.72 ± 0.1 (37 °C). Turning to GCAGAGCAAUAUUACGAUUU, the “self-splicing fitness (ln)” value by setting is: (30 °C) -2.51 ± 0.14; (37 °C) -2.16 ± 0.19.

In the case of UUGGAGCAAUAUUACGCACA, the “self-splicing fitness (ln)” value (30 °C) was -0.871 ± 0.32.
